Here are results for eleven substances from patent US20090285843A1, “EPITOPE SEQUENCES” (Mannkind Corporation, priority 2002, published 2009).

In one experiment the target is HLA-A2.1 (Homo sapiens, UniProt P04439, D140Y/D185E/D98H/E176V/E277Q/G131W/G231S/I119V/I121R/I166T/I218V/L300P/L318F/N151K/N90K/P208A/P217A/Q86G/Q94H/R138H/R169H/T345S). As to the kind of experiment: HLA-A0201 binding assay (T2 cells, flow cytometry). To be noted: for binding to HLA-A2.1: T2 cells, flow cytometry, compared with control peptides.
The test system of experiment [1] is peptide pulsed T2 cells. Nature of the experiment: In vitro immunization of HLA-A2+ blood (CTL induction cultures), chromium release assay. In kind it is cell-based, human. The procedure:
(§1) , tyrosinase207-215 (SEQ ID NO. 8) was used in an in vitro immunization of HLA-A2^+ blood to generate CTL (see CTL Induction Cultures below).
(§2) PBMCs from normal donors were purified by centrifugation in Ficoll-Hypaque from buffy coats. All cultures were carried out using the autologous plasma (AP) to avoid exposure to potential xenogeneic pathogens and recognition of FBS peptides. To favor the in vitro generation of peptide-specific CTL, we employed autologous dendritic cells (DC) as APCs. DC were generated and CTL were induced with DC and peptide from PBMCs as described (Keogh et al., 2001). Briefly, monocyte-enriched cell fractions were cultured for 5 days with GM-CSF and IL-4 and were cultured for 2 additional days in culture media with 2 μg/ml CD40 ligand to induce maturation. 2×10^6 CD8+-enriched T lymphocytes/well and 2×10^5 peptide-pulsed DC/well were co-cultured in 24-well plates in 2 ml RPMI supplemented with 10% AP, 10 ng/ml IL-7 and 20 IU/ml IL-2. Cultures were restimulated on days 7 and 14 with autologous irradiated peptide-pulsed DC.

A further experiment has as its system 624.38. Nature of the experiment: In vitro induced CTL, chromium release assay on tumor cell line. The experiment is classed as cell-based, human. To be noted: 624.38, HLA-A2+, tyrosinase+. The procedure:
as §1, §2

The subject of a further experiment is HTB64. The description is as above. In kind it is cell-based, human. The settings on record: HTB64, HLA-A2+, tyrosinase+. As for the experimental part: as §1, §2
The target in experiment [2] is T1, proteasome isolated from human red blood cells (Homo sapiens, UniProt P28072+P28074+Q99436).
T1 construct: from tissue; host or cells: human red blood cells
Nature of the experiment: N-terminal pool sequence analysis of proteasomal digest. In kind it is biochemical. The settings on record: in vitro proteasome digestion and N-terminal pool sequencing. An excerpt: One aliquot at one hour of the proteasomal digestion (see Example 3 part 3 above) was subjected to N-terminal amino acid sequence analysis by an ABI 473A Protein Sequencer (Applied Biosystems, Foster City, Calif.). Determination of the sites and efficiencies of cleavage was based on consideration of the sequence cycle, the repetitive yield of the protein sequencer, and the relative yields of amino acids unique in the analyzed sequence. That is if the unique (in the analyzed sequence) residue X appears only in the nth cycle a cleavage site exists n−1 residues before it in the N-terminal direction.

Experiment [3] concerns peptide pulsed T2 cells. As to the kind of experiment: In vivo immunization of mice, in vitro stimulation, chromium-release assay measuring CTL activity. The settings on record: 100 nmol peptide s.c. with HTL epitope peptide in IFA; 51Cr-release. Further details: species or system HHD1 transgenic A*0201 mice. The procedure:
Using spleens from 2 naive mice for each group of immunized mice, un-immunized mice were sacrificed and the carcasses were placed in alcohol. Using sterile instruments, the top dermal layer of skin on the mouse's left side (lower mid-section) was cut through, exposing the peritoneum. The peritoneum was saturated with alcohol, and the spleen was aseptically extracted. The spleen was placed in a petri dish with serum-free media. Splenocytes were isolated by using sterile plungers from 3 ml syringes to mash the spleens. Cells were collected in a 50 ml conical tubes in serum-free media, rinsing dish well. Cells were centrifuged ([…], 7 min) and washed one time with RPMI. Fresh spleen cells were resuspended to a concentration of 1×10^6 cells per ml in RPMI-10% FCS (fetal calf serum). 25 µg/ml lipopolysaccharide and 7 μg/ml Dextran Sulfate were added. Cell were incubated for 3 days in T-75 flasks at 37° C., with 5% CO2. Splenic blasts were collected in 50 ml tubes pelleted ([…], 7 min) and resuspended to 3×10^7/ml in RPMI. The blasts were pulsed with the priming peptide at 50 μg/ml, RT 4 hr. mitomycin C-treated at 25 μg/ml, 37° C., 20 min and washed three times with DMEM. […]
During incubation they were gently shaken every 15 minutes. […] Supernatants were harvested and counted using a gamma counter.

Experiment [4] deals with tumor cells expressing other SSX proteins. As to the kind of experiment: Cross-reactivity of CTL with other SSX proteins. The experiment is classed as cell-based. An excerpt: The surrounding regions have also been generally well conserved. Thus the housekeeping proteasome can cleave following V49 in all five sequences.
The next experiment relates to metastatic melanoma. The settings on record: first 15 patients; intradermal peptide with IL-12; cited from earlier work.
The next experiment concerns HLA-A1+ CD8+ T cells. As to the kind of experiment: gamma-IFN-based ELISPOT assay. The experiment is classed as cell-based, human. The settings on record: blocking of gamma IFN production by anti-HLA-A1 monoclonal antibody. The procedure: The wells of a nitrocellulose-backed microtiter plate were coated with capture antibody by incubating overnight at 4° C. using 50 μl (microliter)/well of 4 μg/ml murine anti-human γ (gamma)-IFN monoclonal antibody in coating buffer (35 mM sodium bicarbonate, 15 mM sodium carbonate, pH 9.5). Unbound antibody was removed by washing 4 times 5 min. with PBS. Unbound sites on the membrane then were blocked by adding 200 μl (microliter)/well of RPMI medium with 10% serum and incubating 1 hr. at room temperature. Antigen stimulated CD8^+ T cells, in 1:3 serial dilutions, were seeded into the wells of the microtiter plate using 100 μl (microliter)/well, starting at 2×10^5 cells/well. (Prior antigen stimulation was essentially as described in Scheibenbogen, C. et al. Int. J. […] PSMA462-471 (SEQ ID NO. 62) was added to a final concentration of 10 μg/ml and IL-2 to 100 U/ml and the cells cultured at 37° C. in a 5% CO2, water-saturated atmosphere for 40 hrs. Following this incubation the plates were washed with 6 times 200 μl (microliter)/well of PBS containing 0.05% Tween-20 (PBS-Tween). […] The plate was air dried and the spots counted using a stereomicroscope. […] No reactivity is detected from cultures without peptide (data not shown).

In the case of “FLPWHRLFL (listed as Homo sapiens) [tyrosinase207-215]”, in the experiment with HLA-A2.1, the “binding to HLA-A2.1” value is reported as “more significant binding”. The immunogenicity entry with peptide pulsed T2 cells [1] (compared with the other tyrosinase length variant) was “superior immunogenicity”. In addition, in the experiment with peptide pulsed T2 cells [1] (peptide pulsed T2 cells, standard chromium release assay), the “recognition of tyrosinase207-216 targets by CTL induced by the peptide” value is reported as “equally well”. Besides, the “recognition of tumor cell line by CTL induced by the peptide” value with 624.38 and in the experiment with HTB64 was “recognize” in each case. As for “FLPWHRLFLL (listed as Homo sapiens) [Tyrosinase207-216]”, in experiment [2], the “relative production by in vitro proteasome digestion” value is recorded as “produced more commonly”. With “GLPSIPVHPI (listed as Homo sapiens) [PSMA288-297]”, the “binding to HLA-A2.1” value with HLA-A2.1 was “significant binding at even lower concentrations than the positive control peptides”. Still for that read-out and setting: under “GMPEGDLVYV (listed as Homo sapiens) [PSMA168-177]” stands “significant binding at even lower concentrations than the positive control peptides”. Take KASEKIFYV [SSX-241-49]: the “binding to HLA-A2.1” value in the experiment with HLA-A2.1 was “bind HLA-A2.1 to a similar extent as the known A2.1 binder FLPSDYFPSV”. For the same substance, in the experiment with peptide pulsed T2 cells [3], the “specific lysis of peptide pulsed targets by CTL from immunized mice” value was “specific lysis”. The “cross-reactivity of CTL generated by immunization” value in experiment [4] is on record as “cross-react with tumor cells expressing other SSX proteins”.

As for “MART-126-35 peptide: MART-1 26-35 peptide given intradermally with IL-12 to metastatic melanoma patients (Cebon et al.)”, the clinical response in the experiment on metastatic melanoma was 1 complete remission, 1 partial remission, and 1 mixed response.

For the substance MMNDQLMFL [PSMA663-671], in the experiment with HLA-A2.1, the “binding to HLA-A2.1” value was “significant binding at even lower concentrations than the positive control peptide”. With “RMMNDQLMFL (listed as Homo sapiens) [PSMA662-671]”, in the experiment with HLA-A2.1, the “binding to HLA-A2.1” value was “significant binding at even lower concentrations than the positive control peptide”. The “binding activity compared between the two PSMA peptides” value with HLA-A2.1 (not run in parallel, comparison to the controls) was “superior binding activity”. With RVDCTPLMY [PSMA463-471], the “HLA restriction of response” value in the experiment with HLA-A1+ CD8+ T cells is given as “HLA-A1-restricted response”. With “TLRVDCTPL (listed as Homo sapiens) [PSMA461-469]”, in the experiment with HLA-A2.1, the “binding to HLA-A2.1” value is “binds nearly as well”. Still for that read-out and setting: under “YTLRVDCTPL (listed as Homo sapiens) [PSMA460-469]” stands “bind HLA-A2.1 to a similar extent as the known A2.1 binder FLPSDYFPSV”.
